Reference: patent US20220125845A1 (GUANGDONG TCRCURE BIOPHARMA TECHNOLOGY, published 2022)

Key:
[1] = target: ALPP on ALPP-positive SiHa cervical cancer cells (UniProt P05187); assay: cell-based or functional assay
[2] = target: T1, ALPP on ALPP-positive SiHa cervical cancer cells (UniProt P05187 23-506, limits assumed); assay: flow cytometry on SiHa cells, AF488 goat anti-human secondary
T1 construct: whole, on cells; SiHa cells (ATCC) are called ALPP-positive cervical cancer cells, and ALPP is the target meant; SiHa is a human line; also called PLAP; SiHa cells
Protocol: (§1) 0.2×10⁶ SiHa cells were incubated with serially diluted anti-ALPP antibodies as described herein. Afterward, an AF488 goat anti-human secondary antibody or an AF488 goat anti-mouse IgG (Fcγ fragment specific) was used to stain the cells. Then, the fluorescently stained cells were detected by flow cytometry. Binding curves and calculated EC₅₀ values are shown in FIG. 10B and the table below, respectively.

[3] = target: T2, ALPP antigen (alkaline phosphatase, placental), coated on ELISA plates (UniProt P05187 23-506, limits assumed); assay: ELISA, plate coated with 125 ng ALPP antigen, biotin goat anti-human and streptavidin-HRP, OD450
T2 construct: 125 ng ALPP antigen was coated per plate/well; the general description concerns human ALPP; also called PLAP; placental alkaline phosphatase
Protocol: (§2) Enzyme-linked immunosorbent assay (ELISA) plates were coated with 125 ng ALPP antigen. After blocking the plates, serial dilutions of anti-ALPP antibodies including A02 (H17E2), A04, A05, A06, A07, A08, A09, or a chimeric antibody were added to corresponding wells. Then, a Biotin-SP-AffiniPure goat anti-human antibody was added to wells containing the humanized antibodies A04, A05, A06, A07, A08, A09, or the chimeric antibody. Meanwhile, a Biotin-SP-AffiniPure goat anti-mouse Fc antibody was added to wells containing the mouse antibody H17E2. Next, HRP-conjugated streptavidin was used for biotin detection. Final detection was accomplished by assessing OD450 after 3,3′,5,5′-Tetramethylbenzidine (TMB) substrate was added. Binding curves and calculated EC₅₀ values are shown in FIG. 10A and the table below, respectively.

[4] = target: T1, ALPP on ALPP-positive SiHa cervical …; assay: flow cytometry on SiHa cells, AF488 goat anti-mouse IgG (Fcγ specific) secondary
Protocol: as §1

[5] = target: T2, ALPP antigen (alkaline phosphatase, …); assay: ELISA, plate coated with 125 ng ALPP antigen, biotin goat anti-mouse Fc and streptavidin-HRP, OD450
Protocol: as §2

T1 sequence (P05187 23-506 limits assumed): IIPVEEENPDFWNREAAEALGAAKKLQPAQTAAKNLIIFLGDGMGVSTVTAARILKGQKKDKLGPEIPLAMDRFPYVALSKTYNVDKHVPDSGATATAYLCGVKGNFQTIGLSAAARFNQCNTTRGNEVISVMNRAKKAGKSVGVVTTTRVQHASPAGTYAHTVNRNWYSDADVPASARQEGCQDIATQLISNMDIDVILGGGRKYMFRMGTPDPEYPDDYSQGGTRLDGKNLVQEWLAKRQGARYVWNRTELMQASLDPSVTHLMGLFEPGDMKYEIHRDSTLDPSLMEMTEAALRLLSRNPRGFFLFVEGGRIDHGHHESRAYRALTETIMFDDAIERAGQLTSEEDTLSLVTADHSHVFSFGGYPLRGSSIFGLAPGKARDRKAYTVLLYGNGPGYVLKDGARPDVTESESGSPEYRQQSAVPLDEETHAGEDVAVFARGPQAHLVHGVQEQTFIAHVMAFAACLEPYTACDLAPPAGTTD
T2 sequence (P05187 23-506 limits assumed): as above
Sequence of ALPP on ALPP-positive SiHa cervical cancer cells (UniProt P05187) (P05187 23-506 limits assumed): as above

Molecule | CD69 expression in CD3+ Jurkat cells (percent activated), overnight co-culture with SiHa cells [1] [%] | EC50 [2] [µg/mL] | EC50 [3] [µg/mL] | EC50 [4] [µg/mL] | EC50 [5] [µg/mL]
A02 CAR (murine H17E2 scFv, CD8 hinge and transmembrane region, 4-1BB, CD3 zeta) | 70 to 80 |  |  |  | 
humanized anti-ALPP antibody A05 (antibody, V domains shown, Detected with a goat anti-human secondary antibody; also called A05Ab) VH: QVQLKESGPGLVAPSQTLSLTCTVSGFSLTSYGVSWIRQPPGKGLEWIGVIWEDGSTNYHSALISRVSISVDTSKSQFSLKLSSVDAADTAVYYCARPHYGSSYVGAMEYWGQGTTVTVSS VL: DIQMTQSPSSLSASVGDRVTITCRASENIYSYVAWYQQKPGKAPKFLIYNAKSLAEGVPSRFSGSGSGTDFTLTISSLQPEDFANYYCQHHYVSPWTFGQGTKVEIK |  | 0.225 | 0.00491 |  | 
humanized anti-ALPP antibody A04 (antibody, V domains shown, Detected with a goat anti-human secondary antibody; also called A04Ab) VH: QVQLQESGPGLVAPSQTLSLTCTVSGFSLTSYGVSWIRQPPGKGLEWIGVIWEDGSTNYHSALISRVSISVDTSKSQFSLKLSSVDAADTAVYYCARPHYGSSYVGAMEYWGQGTTVTVSS VL: DIQMTQSPSSLSASVGDRVTITCRASENIYSYVAWYQQKPGKAPKFLIYNAKSLAEGVPSRFSGSGSGTDFTLTISSLQPEDFANYYCQHHYVSPWTFGQGTKVEIK |  | 0.286 | 0.00589 |  | 

Second part, the molecule after the results:

CD69 expression in CD3+ Jurkat cells (percent activated), overnight co-culture with SiHa cells [1] [%] | EC50 [2] [µg/mL] | EC50 [3] [µg/mL] | EC50 [4] [µg/mL] | EC50 [5] [µg/mL] | Molecule
 | 0.257 | 0.0037 |  |  | humanized anti-ALPP antibody A06 (antibody, V domains shown, Detected with a goat anti-human secondary antibody; also called A06Ab) VH: QVQLKESGPGLVAPSQTLSLTCTVSGFSLTSYGVSWIRQPPGKGLEWIGVIWEDGSTNYHSALISRVSISVDTSKSQFSLKLSSVDAADTAVYYCAKPHYGSSYVGAMEYWGQGTTVTVSS VL: DIQMTQSPSSLSASVGDRVTITCRASENIYSYVAWYQQKPGKAPKLLIYNAKSLAEGVPSRFSGSGSGTDFTLTISSLQPEDFANYYCQHHYVSPWTFGQGTKVEIK
 | 0.302 | 0.00534 |  |  | humanized anti-ALPP antibody A07 (antibody, V domains shown, Detected with a goat anti-human secondary antibody; also called A07Ab) VH: QVQLKESGPGLVAPSQTLSLTCTVSGFSLTSYGVSWIRQPPGKGLEWIGVIWEDGSTNYHSALISRVSISVDTSKSQFSLKLSSVDAADTAVYYCAKPHYGSSYVGAMEYWGQGTTVTVSS VL: DIQMTQSPSSLSASVGDRVTITCRASENIYSYVAWYQQKPGKAPKFLIYNAKSLAEGVPSRFSGSGSGTDFTLTISSLQPEDFANYYCQHHYVSPWTFGQGTKVEIK
 | 0.233 | 0.00481 |  |  | humanized anti-ALPP antibody A08 (antibody, V domains shown, Detected with a goat anti-human secondary antibody; also called A08Ab) VH: QVQLQESGPGLVKPSQTLSLTCTVSGFSLTSYGVSWIRQPPGKGLEWIGVIWEDGSTNYHSALISRVSISVDTSKSQFSLKLSSVDAADTAVYYCARPHYGSSYVGAMEYWGQGTTVTVSS VL: DIQMTQSPSSLSASVGDRVTITCRASENIYSYVAWYQQKPGKAPKFLIYNAKSLAEGVPSRFSGSGSGTDFTLTISSLQPEDFANYYCQHHYVSPWTFGQGTKVEIK
 |  |  | 0.211 | 0.0108 | parent mouse anti-ALPP antibody H17E2 (antibody, V domains shown, Mouse monoclonal antibody, detected with goat anti-mouse Fc secondary antibodies; also called A02; A02 antibody) VH: QVQLKESGPGLVAPSQSLSITCTVSGFSLTSYGVSWVRQPPRKGLEWLGVIWEDGSTNYHSALISRLSINKDNSKSQVFLKLNSLQTDDTATYYCAKPHYGSSYVGAMEYWGQGTSVTVSS VL: DIQMTQSPASLTASVGETVTITCRASENIYSYVAWYQQKQGKSPQFLVYNAKSLAEGVPSRFSGSGSGTQFSLKINSLQPEDFGNYYCQHHYVSPWTFGGGTKLEIK
